The target in one test is Rab6 (Homo sapiens) (UniProt P20340). The note with it: cited from earlier work.
Test [1] addresses BicD2-CTD (C-terminal cargo binding domain of human BicD2, residues 715-804) (human). The test is described as follows: SEC-MALS. (In general: Size exclusion chromatography separates by hydrodynamic size, large species first.)
The target is the same in test [2]. The test is described as follows: ITC. (In general: ITC needs no label: the signal is the heat of the interaction.)

UniProt P20340, sequence (P20340 2-208): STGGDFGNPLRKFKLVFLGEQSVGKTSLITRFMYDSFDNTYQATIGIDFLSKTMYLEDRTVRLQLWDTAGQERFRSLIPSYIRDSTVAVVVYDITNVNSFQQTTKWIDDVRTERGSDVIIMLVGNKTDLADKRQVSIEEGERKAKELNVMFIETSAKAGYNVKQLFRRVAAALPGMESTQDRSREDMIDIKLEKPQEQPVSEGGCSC

The term Kd denotes the concentration at which binding is half-saturated. As for BicD2 (from UniProt Q8TD16), the Kd with Rab6 (Homo sapiens) was 1000 nM. By stoichiometry N is commonly meant the number of molecules, sites or subunits per partner or assembly. The substance “BicD2-CTD (C-terminal cargo binding domain of human BicD2, residues 715-804) (domain or fragment)” showed a stoichiometry N in test [1] of 2. In test [2], “Nup358-RBD2 (residues 2006-2443 of human Nup358) (domain or fragment)” had a Kd of 0.5 µM and a dH of -14.9 kcal/mol. The same substance came in with a stoichiometry N (binder per target (2:2 complex)) in test [1] of 1.

In test [2], “Nup358-RBD2/RanGTP complex (from UniProt P62826 1-216)” returned a dissociation constant (Kd) of 3.8 µM and a dH of -12.8 kcal/mol. The substance “Rab6^GTP (full-length human Rab6a Q72L, GTP-locked) (from UniProt P20340 1-208) (natural protein)” showed a Kd in test [2] of 12.6 µM. In test [1], the stoichiometry N (binder per target (2:2 complex)) was 1. As to “Rab6^GTPmin (human Rab6a Q72L, residues 13-174) (from UniProt P20340 13-174) (domain or fragment)”, the Kd in test [2] was determined as 12 µM.
